Measurements reported in patent US20150018278.

Legend:
[1] = system: chicken transcription factor E2F4
[2] = system: negative dominant form of chicken E2F4 (Thr261Ala/Thr263Ala)
[3] = system: constitutively active form of chicken E2F4 (Thr261Glu/Thr263Glu)
Chain of constitutively active form of chicken E2F4 (Thr261Glu/Thr263Glu) (chain, as listed by the source T261E T263E): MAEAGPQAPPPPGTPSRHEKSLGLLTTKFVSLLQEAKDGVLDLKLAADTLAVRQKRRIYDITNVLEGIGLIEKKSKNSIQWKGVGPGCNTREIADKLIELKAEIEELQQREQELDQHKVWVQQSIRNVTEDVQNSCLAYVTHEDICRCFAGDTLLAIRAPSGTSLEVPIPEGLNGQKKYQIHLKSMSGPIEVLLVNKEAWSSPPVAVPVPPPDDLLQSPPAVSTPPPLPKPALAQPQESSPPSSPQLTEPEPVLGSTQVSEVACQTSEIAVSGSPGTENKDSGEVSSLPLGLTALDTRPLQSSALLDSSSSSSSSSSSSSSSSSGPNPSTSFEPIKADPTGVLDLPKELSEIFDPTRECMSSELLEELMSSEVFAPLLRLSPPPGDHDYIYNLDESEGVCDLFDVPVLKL

Chain of chicken transcription factor E2F4 (chain, as listed by the source): as the sequence (chain, as listed by the source T261E T263E) above, with E249T, E251T counted along it
Chain of negative dominant form of chicken E2F4 (Thr261Ala/Thr263Ala) (chain, as listed by the source T261A T263A): as the sequence (chain, as listed by the source T261E T263E) above, with E249A, E251A counted along it

With p38^MAPK the “phosphorylation on threonine residues of E2F4 (Western blot with anti-phosphoThr antibodies in extracts immunoprecipitated with anti-E2F4 antibodies)” value [1] was “The presence of NGF can be seen to involve an increase in phosphorylation on threonine residues, while the presence of p38^MAPK inhibitor inhibits such phosphorylation”, the “incorporation of BrdU” value [2] was “The expression of the negative dominant form of E2F4 (E2F4-ND) prevents the effect of 100 ng/ml NGF on the incorporation of BrdU in retinal neurogenic cultures” and the “incorporation of BrdU” value [3] was “The incorporation of BrdU increases significantly in cells transfected with the constitutively active form of E2F4 (E2F4-CA), an effect that can be observed even in the presence of selective p38^MAPK inhibitor SB203580 (used at 5 µM)”.
